Test results from patent US20120270787A1 (GOVERNORS OF THE UNIVERSITY OF ALBERTA, published 2012).
Where no end group is shown, it is not given here.

T1: calcitonin receptor (human, UniProt P30988 25-474)
T1 sequence (looked up): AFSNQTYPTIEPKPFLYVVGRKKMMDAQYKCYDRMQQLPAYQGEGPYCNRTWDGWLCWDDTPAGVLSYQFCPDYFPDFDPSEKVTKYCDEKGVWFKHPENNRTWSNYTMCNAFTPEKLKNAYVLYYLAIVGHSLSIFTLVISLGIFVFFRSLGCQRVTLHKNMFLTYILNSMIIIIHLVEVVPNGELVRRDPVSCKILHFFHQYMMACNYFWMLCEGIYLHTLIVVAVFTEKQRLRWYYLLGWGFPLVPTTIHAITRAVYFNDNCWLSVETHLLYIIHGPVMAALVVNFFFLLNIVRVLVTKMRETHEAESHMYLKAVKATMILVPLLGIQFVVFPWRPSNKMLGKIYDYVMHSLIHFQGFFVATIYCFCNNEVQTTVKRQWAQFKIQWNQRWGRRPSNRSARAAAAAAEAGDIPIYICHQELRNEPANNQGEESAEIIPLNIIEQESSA

B1: sCT-SMCC (peptide)
peptide: CSNLSTCVLGKLSQELHKLQTYPRTNTGSGTP
modifications: ends and bridges not checked; also: mixture of mono-, di- and tri-substituted: SMCC group in amide bond on Lys11, Lys18 and/or N-terminus
B2: sCT-BP (peptide)
peptide: B1 peptide
modifications: ends and bridges not checked; also: mixture: SMCC linker carrying thiol bisphosphonate on Lys11, Lys18 and/or N-terminus (2-3 SMCC, 1-3 BP)

Molecular target: T1, calcitonin receptor
Test: cell-based or functional assay

Binder | intracellular cAMP in T47D cells, % of native sCT activity, at 50 nM | intracellular cAMP in T47D cells, % of native sCT activity, at 100 nM | intracellular cAMP in T47D cells, % of native sCT activity, at 10 mM (so in the source)
B1 | 98% | 115% | 94.3%
B2 | 102% | 99.8% | 92.8%
